Test results published in PMC11336063.

Target: N-terminal domain of eIF2α (eIF2α-NTD), amino acids 2–187 (UniProt P05198)
Sequence of UniProt P05198 (P05198 2-187): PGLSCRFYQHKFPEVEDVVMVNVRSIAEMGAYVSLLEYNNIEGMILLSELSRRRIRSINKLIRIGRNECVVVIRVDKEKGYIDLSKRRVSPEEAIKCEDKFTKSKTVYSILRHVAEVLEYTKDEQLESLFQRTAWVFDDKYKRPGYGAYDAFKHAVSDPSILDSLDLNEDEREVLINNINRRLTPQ

Row | eIF2α-S51 phosphorylation of eIF2α-NTD (1 μM) by immunopurified GCN2 variant in the in vitro kinase assay, percent | Substance
1 | 12.9% | human GCN2 P1115L variant, 3xFLAG tagged (from UniProt Q9P2K8 1-1649) (enzyme)
2 | 27.2% | human GCN2 G1109R variant, 3xFLAG tagged (from UniProt Q9P2K8 1-1649) (enzyme)
